Experimental data taken from US20230088461A1.

What was measured:
[1] = target: cynomolgus monkey GPC3 on SK-HEP-1-cmGPC3 cells (cynomolgus monkey); assay: flow cytometry on SK-HEP-1-cmGPC3 cells, PE anti-mouse IgG Fc
[2] = target: human GPC3 on SK-HEP-1-huGPC3 cells (human) (UniProt P51654); assay: flow cytometry on SK-HEP-1-huGPC3 cells, PE anti-mouse IgG Fc
[3] = target: mouse GPC3 on SK-HEP-1-muGPC3 cells (mouse) (UniProt Q8CFZ4); assay: flow cytometry on SK-HEP-1-muGPC3 cells, PE anti-mouse IgG Fc
Chain of mouse GPC3 on SK-HEP-1-muGPC3 cells (mouse) (Q8CFZ4 25-553 limits assumed): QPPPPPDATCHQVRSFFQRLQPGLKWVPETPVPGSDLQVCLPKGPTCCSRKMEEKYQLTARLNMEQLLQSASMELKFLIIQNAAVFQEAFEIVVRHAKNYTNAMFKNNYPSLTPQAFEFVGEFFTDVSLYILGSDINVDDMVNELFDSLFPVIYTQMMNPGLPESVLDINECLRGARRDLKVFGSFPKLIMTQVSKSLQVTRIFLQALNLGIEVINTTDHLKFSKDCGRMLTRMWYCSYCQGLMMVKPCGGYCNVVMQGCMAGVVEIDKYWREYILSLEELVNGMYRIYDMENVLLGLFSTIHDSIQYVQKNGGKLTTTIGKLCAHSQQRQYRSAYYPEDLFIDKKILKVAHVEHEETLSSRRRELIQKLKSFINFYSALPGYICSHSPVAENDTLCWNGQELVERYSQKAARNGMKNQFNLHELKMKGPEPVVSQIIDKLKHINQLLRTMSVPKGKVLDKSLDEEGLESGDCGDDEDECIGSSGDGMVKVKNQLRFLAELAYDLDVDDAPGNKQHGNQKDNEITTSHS

Positive population, % [1]: 0.43% | Positive population, % [2]: 0.85% | Positive population, % [3]: 0.91%
Substance: ISOTYPE (antibody)
